Source: patent US7273747B2, “Cell having amplified signal transduction pathway responses and uses therefor” (Cadus Technologies, Inc., priority 1998, dated 2007)
Square brackets hold non-standard residues; d marks the D form. Ends that are not written are not given here. NMeF = CN[C@@H](Cc1ccccc1)C(=O)O; Cha = N[C@@H](CC1CCCCC1)C(=O)O; dCha = N[C@H](CC1CCCCC1)C(=O)O

Molecular target: T1, C5a receptor (Homo sapiens, UniProt P21730)
T1 construct: expressed in transfected cells; host or cells: Saccharomyces cerevisiae strain CY10103 (sibling strains CY13970/13971 and CY13974/13975), carrying gpa1(41)-Gαi2, with a FUS1p-lacZ reporter plasmid
T1 sequence (P21730 1-350): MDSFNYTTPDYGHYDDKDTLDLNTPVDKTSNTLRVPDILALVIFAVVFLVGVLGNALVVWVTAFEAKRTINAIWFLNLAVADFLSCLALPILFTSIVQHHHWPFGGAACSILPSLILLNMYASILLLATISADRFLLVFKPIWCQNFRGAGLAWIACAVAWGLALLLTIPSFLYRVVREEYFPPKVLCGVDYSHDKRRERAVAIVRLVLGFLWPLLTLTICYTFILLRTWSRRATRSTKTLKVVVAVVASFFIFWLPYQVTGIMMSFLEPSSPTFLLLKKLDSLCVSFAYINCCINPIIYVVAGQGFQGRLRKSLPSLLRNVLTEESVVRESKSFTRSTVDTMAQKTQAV
Assay: FUS1p-lacZ β-galactosidase reporter assay in yeast expressing a heterologous C5a receptor
Type: cell-based
Settings: yeast strains carrying C5a receptor plasmid and FUS1p-lacZ reporter; 4 hours incubation with varying concentrations of ChaCha
Excerpt: Yeast strains expressing heterologous GPCRs can be constructed as previously described (see e.g. WO 94/23025). In this example, to create a yeast strain expressing a heterologous GPCR and a Ste5 expression plasmid, yeast strain CY10103 (genotype MATa ste18 g6-3841 far1D1442 cyh2 tbt1-1 FUS1p-HIS3 can1 ste14::trp1::LYS2 ste3D1156 gpa1(41)-Gαi2 lys2 ura3 leu2 trp1 his3 ade2D3447 ade8D3457) was transformed by electroporation with a C5a receptor-bearing plasmid (Cp1303; genotype LEU2 PGKp-C5aR 2m-ori REP3 bla), a reporter plasmid (Cp1584; genotype bla TRP1 2m-ori FUS1p-lacZ), and plasmids that express either wild-type STE5p (Cp5373; genotype URA3 CEN6 ARSH4 bla FUS1p-STE5), a hyperactive STE5p mutant (Cp5643; genotype URA3 CEN6 ARSH4 bla FUS1p-STE5(S18R,T52M)), or no STE5p (Cp1015; genotype URA3 CEN6 ARSH4 bla). Triple transformants were selected on SC plates lacking uracil, tryptophan, and leucine. […]

responsiveness to ligand, monitored as β-galactosidase activity (agonist activity at the C5a receptor): potent agonist
Substance: N-methyl-Phe-Lys-Pro-dCha-Cha-dArg ([NMeF]KP[dCha][Cha][dR]) [ChaCha, C5a receptor ligand; Cha is cyclohexylalanine]
